What was measured:
[1] = target: GST-fusion SMAD3 protein (Sigma-Aldrich Co. LLC.) (UniProt P84022)
[2] = target: FLAG-tag-labeled human SMAD3, expressed in LL29 cells from expression vector pEZ-M11 Flag-hSmad3 (UniProt P84022)
Sequence of FLAG-tag-labeled human SMAD3, expressed in LL29 cells from expression vector pEZ-M11 Flag-hSmad3 (P84022 whole entry, looked up): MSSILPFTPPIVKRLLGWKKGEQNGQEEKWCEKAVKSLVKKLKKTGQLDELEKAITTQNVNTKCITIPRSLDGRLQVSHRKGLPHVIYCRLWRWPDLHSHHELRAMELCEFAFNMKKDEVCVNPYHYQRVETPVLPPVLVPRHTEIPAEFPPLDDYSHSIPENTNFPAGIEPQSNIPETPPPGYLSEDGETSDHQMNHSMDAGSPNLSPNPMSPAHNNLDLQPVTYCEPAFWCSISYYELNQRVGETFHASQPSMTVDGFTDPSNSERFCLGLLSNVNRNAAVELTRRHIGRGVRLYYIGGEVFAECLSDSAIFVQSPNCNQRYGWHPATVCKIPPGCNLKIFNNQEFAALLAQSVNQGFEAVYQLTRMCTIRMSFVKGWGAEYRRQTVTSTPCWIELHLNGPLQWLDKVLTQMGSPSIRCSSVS

Sequence of GST-fusion SMAD3 protein (Sigma-Aldrich Co. LLC.) (P84022 whole entry, looked up, the tested form may be a part): as the sequence (P84022 whole entry, looked up) above
Sequence of His-fusion NEK6 protein (Eurofins Scientific SE) (chain, as listed by the source): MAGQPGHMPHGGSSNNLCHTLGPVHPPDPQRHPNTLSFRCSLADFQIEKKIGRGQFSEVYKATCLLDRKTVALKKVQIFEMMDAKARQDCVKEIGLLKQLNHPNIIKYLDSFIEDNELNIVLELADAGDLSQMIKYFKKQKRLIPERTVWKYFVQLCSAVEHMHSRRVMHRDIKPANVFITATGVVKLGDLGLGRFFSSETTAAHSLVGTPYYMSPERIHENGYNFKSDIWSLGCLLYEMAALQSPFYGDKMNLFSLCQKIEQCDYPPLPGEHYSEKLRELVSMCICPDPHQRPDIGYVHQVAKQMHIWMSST

His-fusion NEK6 protein (Eurofins Scientific SE)
amount of phosphorylated SMAD3 (Western blot after in vitro kinase reaction with purified proteins) [1]: By using NEK6 protein, the amount of phosphorylated SMAD3 was elevated.

human NEK6 protein (NIMA-related serine/threonine kinase 6), expressed in LL29 cells from expression vector pEZ-M02 Nek6
amount of phosphorylated SMAD3 protein (Western blot of anti-FLAG coimmunoprecipitate) [2]: transfection of a human NEK6 expression vector caused the amount of phosphorylated SMAD3 protein to be elevated
